In patent US20120270914A1, “SPLIT-LUCIFERASE C-MYC SENSOR AND USES THEREOF” (THE BOARD OF TRUSTEES OF THE LELAND STANFORD JUNIOR …, priority 2011, published 2012):

Target: NFL-c-Myc T581 (firefly) [luciferase: P08659]
Assay: cell-based or functional assay

Sequence of NFL-c-Myc T581 (firefly) [luciferase: P08659] (P08659 other isoform, or with tags, fused parts or gaps): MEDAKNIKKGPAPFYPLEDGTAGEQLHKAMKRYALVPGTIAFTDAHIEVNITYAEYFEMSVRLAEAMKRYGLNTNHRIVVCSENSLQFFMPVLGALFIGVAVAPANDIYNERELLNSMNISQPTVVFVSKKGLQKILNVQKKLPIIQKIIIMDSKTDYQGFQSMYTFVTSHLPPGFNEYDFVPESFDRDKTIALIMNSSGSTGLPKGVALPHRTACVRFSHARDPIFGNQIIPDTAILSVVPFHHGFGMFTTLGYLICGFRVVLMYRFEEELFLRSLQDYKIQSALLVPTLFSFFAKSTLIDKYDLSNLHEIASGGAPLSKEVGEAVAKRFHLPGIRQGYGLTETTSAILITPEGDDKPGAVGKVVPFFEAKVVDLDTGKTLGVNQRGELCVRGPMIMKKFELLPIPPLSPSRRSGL

B1: GSK 35-433-CFL, P49841 35-420 (protein, not shown: large carriers)
chain: SKVTTVVATPGQGPDRPQEVSYTDTKVIGNGSFGVVYQAKLCDSGELVAIKKVLQDKRFKNRELQIMRKLDHCNIVRLRYFFYSSGEKKDEVYLNLVLDYVPETVYRVARHYSRAKQTLPVIYVKLYMYQLFRSLAYIHSFGICHRDIKPQNLLLDPDTAVLKLCDFGSAKQLVRGEPNVSYICSRYYRAPELIFGATDYTSSIDVWSAGCVLAELLLGQPIFPGDSGVDQLVEIIKVLGTPTREQIREMNPNYTEFKFPQIKAHPWTKDSSGTGHFTSGVRVFRPRTPPEAIALCSRLLEYTPTARLTPLEACAHSFFDELRDPNVKLPNGRDTPALFNFTTQELSSNPPLATILIPPHARIQAAASTPTNATAASDANTGDRGQTNNAASASASNST
modifications: here or on the partner: phosphorylation partially abolished (T58 cannot be phosphorylated)
For B1, the complemented FL activity of SKBR3 xenografts in nude mice, normalized to hRL activity, compared with pcDNA3.1(+) vector was 4.7 fold.
